According to patent publication US8663616B2, “Enzymatic peracid generation for use in oral care products” (E I du Pont de Nemours and Company, priority 2010, dated 2014):

Legend:
[1] = Two-step bleaching of coffee-tea stained bovine enamel (Example 16); settings: for Whiteness Index 0 min: two-step: 10 μM enzyme 60 min, rinsed, then 40 mM triacetin, 100 mM H2O2, pH 7.2, before step 2; for ΔWI / Whiteness Index 5 min / Whiteness Index 15 min / Whiteness Index 30 min / Whiteness Index 45 min / Whiteness Index 60 min: two-step; for ΔWI: 0 to 60 min; for Whiteness Index 5 min: 5 min in triacetin/H2O2; for Whiteness Index 15 min: 15 min in triacetin/H2O2; for Whiteness Index 30 min: 30 min in triacetin/H2O2; for Whiteness Index 45 min: 45 min in triacetin/H2O2; for Whiteness Index 60 min: 60 min in triacetin/H2O2
Experimental: Bovine enamel incisors were prepared as indicated in Example 1. The stained enamel blocks were embedded in a 48 well plate to protect the dentin backside from solution exposure. A solution of 10 μM of each enzyme in 10 mM phosphate buffer, pH 7.2 was prepared and 500 μL of solution was incubated with each enamel substrate for 60 min. The enzyme solution was removed and each well was rinsed three times with an additional 500 μL of buffer. The enamel blocks were placed in a fresh well for the whitening process. A solution with a final concentration of 40 mM triacetin, 100 mM H2O2 in 50 mM phosphate pH 7.2 buffer was freshly prepared and 500 μL of solution was added to each enamel block. Over the course of 1 hr the enamel blocks were removed and a color measurement was obtained and then each was returned to the solution in the well plate. The whiteness index for each sample was monitored.

[2] = Retention of perhydrolase on hydroxyapatite (SDS-PAGE band strength); assay type: binding; settings: relative to enzyme input = 1; for Unbound (relative band strength): 10 μM enzyme, 0.5% hydroxyapatite, pH 7.2; for HAP Particles (relative band strength): enzyme retained on particles after washes
Experimental: Perhydrolase enzymes listed in Table 6 were assessed for binding to hydroxyapatite. A dispersion of hydroxyapatite nanoparticles (Aldrich 677418) was made at 0.5% solids in 10 mM phosphate buffer at pH 7.2. Enzyme stock solution was added to the hydroxyapatite dispersion to a final concentration of 10 μM and incubated for 30 min in a microcentrifuge tube with gentle agitation. Each sample was centrifuged for 5 min at 10000 rpm. The supernatant was removed and additional buffer was added. The particles were resuspended and transferred to a new tube. The process was repeated two additional times. Samples of the original input of enzyme, the supernatant removed from the particles with each wash step and the final particles were prepared for SDS-PAGE analysis by combining 60 μL of sample, 20 μL of LDS buffer and 8 μL of reducing agent (Nu-PAGE). Samples were heated at 85° C. for 10 min. 25 μL of each sample was loaded on a 4-12% BisTris gel (Invitrogen) and run at 115 volts for 1.5 h. The gel was removed and stained with a 1:1 dilution of Simply Blue stain (Invitrogen) overnight and destained for 4 h in deionized water. The gel was analyzed and detection of enzyme in each fraction was estimated based on the presence of a band. The results of the analysis are provided in Table 7 with an indication of the relative strength of each band in the gel compared to the enzyme input (input=1) to determine the strength of binding between the hydroxyapatite surface and each enzyme.

[3] = Perhydrolase activity in solution, ABTS detection of peracetic acid (Example 7); assay type: biochemical; settings: 10 μL of 0.625 μg/mL enzyme, triacetin, H2O2, pH 7.2, 5 min
Experimental: (§1) The detection of peracetic acid followed the method described in Pinkernell et. al. (Analyst, 1997, 122, 567) using colorimetric detection of 2,2′-azino-bis(3-ethylbenzothiazoline(-6-sulfonate (ABTS) oxidation by peracetic acid. Following the formation of peracetic acid with the addition of triacetin and hydrogen peroxide, 90 μL of solution was added to 10 μL of 0.1 M H3PO4 in a well plate. 50 μL of 1 M acetic acid, 50 μL of 0.5 g/L ABTS and 50 μL of 0.002 g/L of KI was added. The solution was allowed to develop for 5 min. The absorbance of the solution was measured at 405 nm using a microplate reader. The peracetic acid concentration was calculated based on a standard curve developed simultaneously using peracetic acid reagent solution.
The enzyme activity in solution was measured by making a solution of 0.625 μg/mL of each enzyme in 50 mM phosphate buffer, pH 7.2. 10 μL of enzyme solution was mixed with 90 μL buffer, 30 μL of 3% triacetin in water, 30 μL of 30 mM H2O2. The solution was incubated for 5 min. A 90 μL aliquot was removed for detection via ABTS oxidation as noted above.

[4] = T. maritima C277S/C277T constructs, peracetic acid in solution (Example 11); assay type: biochemical; settings: 0.5 μM enzyme, 100 mM triacetin, 100 mM H2O2, pH 7.2, 10 min, 37° C.; no enzyme 114
Experimental: as §1
Perhydrolase enzymes listed in Table 5 were assessed for enzyme activity in solution as described in Example 7. The enzyme activity in solution was measured by making a 500 μl solution of 0.5 μM of each enzyme in 100 mM triacetin, 100 mM H2O2 and 10 mM phosphate buffer, pH 7.2. The solution was incubated for 10 min, at 37° C. After the reaction was stopped by mixing an aliquot with H3PO4, a 10 μL aliquot was removed for proper dilution, and then detected via ABTS oxidation as described in Example 7.

[5] = Peracetic acid generation from hydroxyapatite bound CE-7 perhydrolase fusions (Example 8); assay type: biochemical; settings: hydroxyapatite particles exposed to 10 μM enzyme, washed; 100 mM triacetin, 100 mM H2O2, 30 min, 37° C.; no enzyme 30-118.8
Experimental: as §1
To assess binding of these constructs to hydroxyapatite, 33 mg of hydroxyapatite particles (Macro-prep Ceramic Hydroxyapatite TYPE I, 80 μm size BioRad, Hercules, Calif.), were washed with 10 mM phosphate buffer at pH 7.2. After removing the supernatant, enzyme stock solution was added to the hydroxyapatite dispersion to a final concentration of 10 μM and incubated for 30 min in a microcentrifuge tube with gentle agitation. Each sample was centrifuged for 1 min at 10000 rpm. The supernatant was removed and additional buffer was added. The particles were resuspended and transferred to a new tube. The process was repeated two additional times. The hydroxyapatite bound enzyme activity was measured by adding a 500 μl solution containing 100 mM triacetin, 100 mM H2O2 in 100 mM phosphate buffer, pH 7.2. The solution was incubated for 30 min, at 37° C. An aliquot was removed and mixed with H3PO4 and properly diluted for detection via ABTS oxidation as described in Example 7. The experiments were performed at different day with no enzyme as control for each experiment.

[6] = T. maritima C277S/C277T constructs, peracetic acid when bound to bovine enamel (Example 11); assay type: biochemical; settings: bovine enamel exposed to 10 μM enzyme, 4 washes; 100 mM triacetin, 100 mM H2O2, 30 min, 37° C.; no enzyme 570
Experimental: as §1
The perhydrolase enzymes were also assessed for binding to bovine enamel substrates. Enamel substrates were prepared as described in Example 2 and 3. Each enamel block was hydrated in water for overnight at room temperature (˜22° C.). The enamel blocks were then equilibrated with 10 mM potassium phosphate buffer, pH7.2, for 10 min. The enamel substrates were rinsed 3 times the buffer. The enamel wells were filled with 500 μL of 10 μM enzyme solutions which was prepared by diluting in 10 mM phosphate buffer. The samples were incubated for 30 min with slow shaking at 37° C. The non-binding enzyme was removed by washing 4 times with phosphate buffer. Then, each enamel block was embedded inside a putty filled 24-well plate, with only the enamel top surface exposed. The perhydrolase activity from enamel bound enzyme was measured as described in Example 8. 100 μL reaction mixtures (100 mM phosphate buffer, pH7.2 and 100 mM H2O2 and 100 mM triacetin) was added on top of the enamel and incubated for 30 min at 37° C. A 90 μL aliquot was removed for detection via ABTS oxidation as noted in Example 8. Each sample data point represents an average of 3 independent enamel blocks.

[7] = Perhydrolase activity of enzyme bound to hydroxyapatite discs, ABTS (Example 7); assay type: biochemical
Experimental: as §1
The perhydrolase activity of the fusions once bound to HAP discs surfaces was determined with the same ABTS method. Hydroxyapatite discs (HiMed Inc, Old Bethpage, N.Y.; 5 mm dia.×1.8 mm thick) were incubated in 20 μM enzyme solution (50 mM potassium phosphate buffer pH 7.2) for 60 min followed by 6 times of washes (50 mM potassium phosphate buffer pH 7.2). The discs with enzyme adsorbed were transferred to new wells and 200 μL of phosphate buffer (10 mM pH 7.2), 30 μL of 3% triacetin (final concentration of 0.346%) and 30 μL of 30 mM H2O2 (final concentration of 3.46 mM) were added. The solution was allowed to incubate at room temperature for 5 min. 90 μL of solution was pipetted to a new well containing 10 μL of 100 mM H3PO4. 50 μL of acetic acid, 50 μL KI, 50 μL ABTS were added as described above. The solution was developed for 5 min at room temperature and read at A405 nm.

Row | Unbound (relative band strength) [2] | HAP Particles (relative band strength) [2] | Wash1 (relative band strength) [2] | Wash2 (relative band strength) [2] | Peracetic acid (ppm) [5] [ppm] | Molecule | Whiteness Index 0 min [1] | ΔWI [1] | Whiteness Index 5 min [1] | Whiteness Index 15 min [1] | Whiteness Index 30 min [1] | Whiteness Index 45 min [1] | Whiteness Index 60 min [1] | Avg Absorbance 405 nm Background subtracted [3] | Peracetic acid (ppm) In Solution [4] [ppm] | Peracetic acid (ppm) On Enamel [6] [ppm] | Avg Absorbance Background subtract ([7]; background = no enzyme, no HAP (0.775)) | Avg Absorbance at 5 min ([7]; discs incubated in 20 μM enzyme, 6 washes, 0.346% triacetin, 3.46 mM H2O2, A405) | PAA conc μM per disc ([7]; enzyme bound to hydroxyapatite disc, 5 min, no enzyme control 1.2) [μM per disc] | activity when bound to hydroxyapatite (in words) ([7]; with addition of triacetin and hydrogen peroxide)
1 | 0.5 | 0.5 | 0.0 | 0.0 | 3666.4 | EZ-2: C277S-link1-HC263-H6 fusion protein, SEQ ID NO: 425 (protein) MAFFDLPLEELKKYRPERYEEKDFDEFWEETLAESEKFPLDPVFERMESHLKTVEAYDVTFSGYRGQRIKGWLLVPKLEEEKLPCVVQYIGYNGGRGFPHDWLFWPSMGYICFVMDTRGQGSGWLKGDTPDYPEGPVDPQYPGFMTRGILDPRTYYYRRVFTDAVRAVEAAASFPQVDQERIVIAGGSQGGGIALAVSALSKKAKALLCDVPFLCHFRRAVQLVDTHPYAEITNFLKTHRDKEEIVFRTLSYFDGVNFAARAKIPALFSVGLMDNISPPSTVFAAYNYYAGPKEIRIYPYNNHEGGGSFQAVEQVKFLKKLFEKGGPGSGGAGSPGSAGGPGSPSAQSQLPDKHSGLHERAPQRYGPEPEPEPEPIPEPPKEAPVVIEKPKPKPKPKPKPPAHDHKNQKETHQRHAAGSGGGGSPHHHHHH | −154.5 | 129.1 | −134.6 | −97.3 | −57.2 | −35.8 | −25.3 | 1.577 | 4761 | 2549 | – | – | – | –
2 | 0.2 | 0.7 | 0.05 | 0.05 | – | EZ-5: C277S-link1-(GK)5-H6, SEQ ID NO: 428 (protein) MAFFDLPLEELKKYRPERYEEKDFDEFWEETLAESEKFPLDPVFERMESHLKTVEAYDVTFSGYRGQRIKGWLLVPKLEEEKLPCVVQYIGYNGGRGFPHDWLFWPSMGYICFVMDTRGQGSGWLKGDTPDYPEGPVDPQYPGFMTRGILDPRTYYYRRVFTDAVRAVEAAASFPQVDQERIVIAGGSQGGGIALAVSALSKKAKALLCDVPFLCHFRRAVQLVDTHPYAEITNFLKTHRDKEEIVFRTLSYFDGVNFAARAKIPALFSVGLMDNISPPSTVFAAYNYYAGPKEIRIYPYNNHEGGGSFQAVEQVKFLKKLFEKGGPGSGGAGSPGSAGGPGSGKGKGKGKGKHHHHHH | −135.8 | 93.2 | −129.8 | −97.4 | −65.1 | −49.9 | −42.7 | 1.658 | 3956 | 1344 | 1.379 | 2.154 | 49.7 | active enzymes when bound to hydroxyapatite
3 | 0.8 | 0.1 | 0.05 | 0.05 | – | EZ-3: C277S-link2-H6, SEQ ID NO: 426 (protein) MAFFDLPLEELKKYRPERYEEKDFDEFWEETLAESEKFPLDPVFERMESHLKTVEAYDVTFSGYRGQRIKGWLLVPKLEEEKLPCVVQYIGYNGGRGFPHDWLFWPSMGYICFVMDTRGQGSGWLKGDTPDYPEGPVDPQYPGFMTRGILDPRTYYYRRVFTDAVRAVEAAASFPQVDQERIVIAGGSQGGGIALAVSALSKKAKALLCDVPFLCHFRRAVQLVDTHPYAEITNFLKTHRDKEEIVFRTLSYFDGVNFAARAKIPALFSVGLMDNISPPSTVFAAYNYYAGPKEIRIYPYNNHEGGGSFQAVEQVKFLKKLFEKGGSHHHHHH | −159.0 | 75.2 | −147.4 | −161.5 | −117.3 | −104.7 | −83.8 | 1.751 | 5187 | 733 | – | – | – | –
